Residue numbers refer to the chain shown, from its start.

T1: human Ang2 protein (R&D Systems, 623-AN-01M/CF; 623-AN/CF) (human, UniProt O15123 19-496)
T1 construct: Bought recombinant protein; also called Ang2 proteins; angiopoietin-2
T1 sequence (looked up): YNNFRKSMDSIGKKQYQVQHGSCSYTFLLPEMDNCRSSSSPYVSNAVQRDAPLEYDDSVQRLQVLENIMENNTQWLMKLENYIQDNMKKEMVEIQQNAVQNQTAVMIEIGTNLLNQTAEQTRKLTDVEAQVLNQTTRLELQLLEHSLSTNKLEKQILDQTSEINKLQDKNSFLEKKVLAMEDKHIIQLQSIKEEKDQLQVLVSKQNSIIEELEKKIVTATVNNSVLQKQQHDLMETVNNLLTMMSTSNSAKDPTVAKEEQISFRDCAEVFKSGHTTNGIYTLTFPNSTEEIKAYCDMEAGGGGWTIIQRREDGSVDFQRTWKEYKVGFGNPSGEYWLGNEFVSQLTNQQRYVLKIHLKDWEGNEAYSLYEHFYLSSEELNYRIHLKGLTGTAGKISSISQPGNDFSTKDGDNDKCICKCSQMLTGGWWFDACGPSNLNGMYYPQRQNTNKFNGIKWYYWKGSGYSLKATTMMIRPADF

T2: mouse Ang2 protein (R&D Systems, 7186-AN-025/CF) (mouse, UniProt O35608 19-496, limits assumed)
T2 construct: Bought recombinant protein
T2 sequence (looked up): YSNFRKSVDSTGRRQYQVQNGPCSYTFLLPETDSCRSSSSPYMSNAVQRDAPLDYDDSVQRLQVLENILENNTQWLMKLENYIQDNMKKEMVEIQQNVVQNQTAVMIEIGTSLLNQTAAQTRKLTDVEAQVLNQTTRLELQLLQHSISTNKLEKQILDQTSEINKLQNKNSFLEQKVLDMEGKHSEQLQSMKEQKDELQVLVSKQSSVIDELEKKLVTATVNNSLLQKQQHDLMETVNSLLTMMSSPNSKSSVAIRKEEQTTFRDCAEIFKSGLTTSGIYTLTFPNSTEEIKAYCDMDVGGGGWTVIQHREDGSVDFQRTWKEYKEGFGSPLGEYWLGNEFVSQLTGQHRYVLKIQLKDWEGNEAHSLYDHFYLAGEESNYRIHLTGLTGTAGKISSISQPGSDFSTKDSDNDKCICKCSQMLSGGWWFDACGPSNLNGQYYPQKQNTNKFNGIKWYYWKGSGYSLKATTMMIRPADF

T3: membrane-anchored cyno Ang2 protein expressed on CHO-K1 cells (cyno, UniProt A0A2K5VNX6 19-496)
T3 chain: T1 sequence (looked up) with E258G, I279V, F284L, I291V, G410A, A468G, D477G

T4: membrane-anchored human Ang2 protein expressed on CHO-K1 cells (human, UniProt O15123 19-496)
T4 chain: T1 sequence (looked up)

T5: human Ang2 protein (R&D Systems, 623-AN-01M/CF; 623-AN/CF) (human, UniProt O15123 19-496)
T5 chain: T1 sequence (looked up)

B1: 46F3H4 (antibody, V domains shown)
VH: EVQLHQSGPELVKPGASVKMSCKASGYTFTNYYIHWVKQSHGKSIEWIGYIYPNNGDTTYNQKFKGKATLTVDKSSSIAYMELRSLTSEDSAVYYCAVVSYSNYVAGAMDYWGQGTSVTVSS
VL: SIVMTQTPKFLLVSAGDRVTITCKASQSVSNDVAWYQQKPGQSPKLLIYFASNRYTGVPDRFTGSGYGTDFTFTISTVQAEDLAVYFCQQDYSSPYTFGGGTKLEIK
notes: Hybridoma antibody purified with Protein-A beads
B2: 42C3A4 (antibody, V domains shown)
VH: EVKLEESGGGLVQPGGSMKLSCVASGITFSNYWMDWVRQSPEKGLEWVAEIRLKSNNYATHYAESVKGRFTISRDDSKNSVYLQMNNLRAEDTGIYYCTRGAPLFGGYYKGVYFDYWGQGTTLTVSS
VL: B1 VL with I2F, F10S, V13A, K24Q, D32E, F50Y, N53S, T63A, S93N
notes: as for B1
B3: 49E4C2 (antibody, V domains shown)
VH: B2 VH with N79S, G106D
VL: B1 VL with I2T, F10S, V13A, T20A, D32E, Q42L, F50Y, S93N
notes: as for B1
B4: 15B4C6 (antibody, V domains shown)
VH: QVQLKESGPGLVAPSQSLSITCTVSGFSLNGYGVNWVRQPPGKGLEWLGLIWNNGSTDYNSALKSRLTISKDNSKSLVFLKMNSLQTDDTARYYCARDPLYLLRGAMDYWGQGTSVTVSS
VL: DIVLTQSPASLTVSLGQRATISCRASKSVSSSGYNFIYWYQQKPGQPPKLLIYLASNLESGVPARFSGSGSGTDFTLNIHPVEEEDAATYYCQHSRDLPLTFGAGTKLELK
B5: 25C5D6F3 (antibody, V domains shown)
VH: EVNLVESGGGLVQPGGSLRLSCATSGFTFSDFYMEWVRQPPGKRLEWIAASRNKANDYTTEYSASVKGRFIVSRDTSQSILYLQMNALRAEDTAIYYCTRGSYTNYTWFAYWGQGTLVTVSA
VL: B1 VL
B6: 15H10D12 (antibody, V domains shown)
VH: DVQLQESGPGLVKPSQSLSLTCTVTGYSITSDYAWNWIRQFPGNRLEWMGYINYSGSTDYNPSLKSRISITRDTSKNQFFLQLNSVTTEDTATYYCARGVRGDMDYWGQGTSVTVSS
VL: B1 VL with F50Y, E81D, Y96F, G100S
B7: 27H11B5 (antibody, V domains shown)
VH: DVQLQESGPGLVKPSQSLSLTCTVTGYSITSDYAWNWIRQFPGNKLEWMGYISYSGSTSYNPSLKSRISITRDTSKNQFFLQLNSVTTEDTATYYCARCVYGNYVGAMDYWGQGTSVTVSS
VL: B1 VL with S30T, F50Y, A80T, Y96L, G100A, I106L
B8: 17F3E8 (antibody, V domains shown)
VH: B1 VH with S44T, Y52H, T59S, G66D, I78T, E82D, A97S, N103H, M109L, Y111N
VL: B1 VL
B9: 31E2D4 (antibody, V domains shown)
VH: QIQLVQSGPELKKPGETVKISCKASGYTLTNYGMNWVKQAPGKGLKWMGWINSYSGVPTYADDFKGRFAFSLETSASTAYLQINNLKNEDTATYFCARGENNYYGGSYDWGQGTTLTVSS
VL: B1 VL with F50Y, Y96L, G100A, I106L, K107R
B10: 50H8E5C5 (antibody, V domains shown)
VH: B1 VH with I34M, T59N, I78T, Y95S
VL: B1 VL
B11: 33A3E2 (antibody, V domains shown)
VH: EVKLVESGGGLVQPGGSRKLSCAASGFTFSDYGMVWVRQAPGKGLEWVAYIGSGRSTIYYADTVKGRFTISRDNPKNTLFLQMSSLRSEDTAMYYCAREDNGYSYAMDYWGQGTSVTVSS
VL: DIQMTQSPASQSASLGESVTITCLTSQTIGTWLAWYQQKPGKSPQLLIYAATSLADGVPSRFSGSGSGTKFSFKISSLQAEDFVSYYCQQLYSIPLTFGAGTKLELK
B12: 39C1C4 (antibody, V domains shown)
VH: B11 VH with S56N, A97V
VL: B11 VL with T25A
B13: 49B8G4 (antibody, V domains shown)
VH: B11 VH with V48I, S56N
VL: B11 VL with I21V, T25A, V84G, A100V
B14: 7F10B2 (antibody, V domains shown)
VH: EVQLQQSGPELVKPGSSVKISCKTSGYTFTDYNMDWVKQSHGKSLEWIGTINPKNGETSDNQKFKAKATLTVDKSSSTAYMELRSLTSEDSAVYYCAKNVDYSNYLFFPMDYWGQGTSVTVSS
VL: SIVMTQTPKFLLVSAGDRVTITCKASQSVSNDVAWYQQKPGQSPKLLIYYASNRFTGVPDRFTGSGYGTDFTFTITTVQAEDLAVYFCQQDYSSRTFGGGTKLEIK
B15: 45C5A1 (antibody, V domains shown)
VH: EVKLVESGGGLVQPGGSLKLSCAASGFTFSNYTMSWVRQTPEKRLELVAEISNSDGSAYYPDTVKGRFTISRDNAKKTLYLQMSSLKSEDTAMYYCARHGGLRVYYAIDYWGQGTSVTVSS
VL: DIQMTQSPASQSASLGESVTITCLASQTIGPWLAWYQQKPGKSPQLLIYAATSLADGVPSRFSGSGSGTKFSFKISSLQAEDFVSYYCQQLYSDPLYTFGGGTKLEMK

The target of the first assay is T1, human Ang2 protein (R&D Systems, …). The assay is described as follows: indirect ELISA, human Ang2 coated at 0.5 µg/ml. As for the experimental part:
(§1) The antibodies were tested for their binding activities to Ang2 in an indirect ELISA. Briefly, 100 μl of 0.5 μg/ml human or mouse Ang2 proteins (R&D Systems; 623-AN-01M/CF for human Ang2, 7186-AN-025/CF for mouse Ang2) were pre-coated onto ELISA plates overnight at 4° C. On the next day, the plates were incubated with […] diluted primary antibodies, with initial concentration at 1 μg/ml. The plates were added with HRP-conjugated goat anti-mouse IgG (H+L) and then TMB for chromogenic reaction. The antibody-antigen binding curves were generated with optical density readings at 450 nm. Raw data was plotted using GraphPad Prism v6.02 software with four parameters, and best-fit values program was used to analyze the EC₅₀.
A general note: ELISA stands for enzyme-linked immunosorbent assay.
For B1, the binding result is “binds”. Same read-out and setting: next, B2: “binds”; B3: “binds”.

Another assay deals with T2, mouse Ang2 protein (R&D Systems, …). The assay is described as follows: indirect ELISA, mouse Ang2 coated at 0.5 µg/ml. As for the experimental part:
as §1
With B1, the binding result is listed as “no binding (tested: initial concentration at 1 µg/ml)”.

Another assay has as its target T3, membrane-anchored cyno Ang2 protein …. Briefly: FACS.
What is called EC50 is the concentration that produces a half-maximal response. A high value points to a less potent agent. Consider B1, for which it took 18.8 nM to reach a half-maximal effect (EC50). In the case of B2, a half-maximal response (EC50) required 8.13 nM. Against the preceding molecule, the EC50 is about 2.3-fold lower. B3 gave an EC50 of 29.4 nM.

The target of a further assay is T4, membrane-anchored human Ang2 protein …. Briefly: FACS.
B1: the EC50 was determined as 6.33 nM. That is a single-digit nanomolar value.

In the case of B2, the EC50 stood at 0.155 nM. Same read-out and setting: to B3 belongs 0.14 nM.

A further assay has as its target T5, human Ang2 protein (R&D Systems, …). The assay is described as follows: ELISA.
Take B4: the EC50 stood at 11.2 ng/mL.

B1 displayed an EC50 of 42.4 ng/mL. As for B5, the EC50 came out at 17.6 ng/mL.

B6 gave an EC50 of 9.28 ng/mL. The same measure, in the same setting: to B7 belongs 9.97 ng/mL; to B8, 12.2 ng/mL; to B9, 6.6 ng/mL. The same measure, in the same setting: to B2 belongs 11.4 ng/mL; to B10, 66.2 ng/mL. Turning to B3, a half-maximal response (EC50) required 11 ng/mL. Take B11: the EC50 stood at 5.59 ng/mL.

On to B12, for which the EC50 was 4.47 ng/mL. The same measure, in the same setting: to B13 belongs 4.57 ng/mL.

The molecule B14 displayed an EC50 of 4.62 ng/mL. The same measure, in the same setting: next, B15: 7.03 ng/mL.
